From patent US20060073572A1, “Cytokine structurally related to IL-17” (The Johns Hopkins University, priority 2001, published 2006)

Key:
ICAM-1 = ICAM-1 surface protein expression on NHBE cells by flow cytometry; assay type: cell-based, human; conditions: 100 ng/ml, 48 hours, mean±SD (n=4)
Protocol: FIG. 4. Effect of ML-1 on ICAM-1 surface expression on NHBE cells by Flow Cytometry. NHBE cells were treated for 48 hours under following conditions: medium only, rIL-17 (100 ng/ml), purified His-tagged protein (Positope, 100 ng/ml), or ML-1 (100 ng/ml) as indicated. The mean fluorescence intensity of ICAM-1 surface expression was measured. The experiment was conducted four times. The results shown are from a representative experiment. * p<0.01.
To determine whether ML-1 is able to induce ICAM-1 expression on NHBE cells, surface expression of ICAM-1 on NHBE cells was measured and the effects of ML-1 and IL-17 were compared.
NHBE cells were treated with IL-17 (100 ng/ml), ML-1 (100 ng/ml), or a control His protein (Positope, 100 ng/ml). The cells were harvested following treatment with 0.1% trypsin-0.02% EDTA at 37° C. for 6 minutes and suspended in PBS containing 2% BSA and 0.02 % sodium azide. One million cells were incubated with a mouse anti-human ICAM-1 monoclonal antibody (R&D Systems, Minneapolis, Minn.) on ice for 30 minutes. […] After three additional washes in PBS, the cells were resuspended in PBS and immediately analyzed with a FACScan flow cytometer (Becton Dickinson, Mountain View, Calif.). […] Indices are expressed as mean±SD (n=4).

p38 = test: Western blotting of p38 activation in ML-1-stimulated cells; assay type: cell-based, human; conditions: any time point, FIG. 6A (PBECs)
Protocol: FIGS. 6A-6D. Kinetic activation of ERK1/2 by ML-1 in PBECs (FIG. 6A) and HUVECs (FIG. 6B). The cells were incubated with or without ML-1 (100 ng/ml) for different time points as indicated. Western blotting analysis was performed by using antibodies against different MAP kinases as described in Example 8. FIGS. 6C and 6D. Effect of PD98059 on ML-1-induced phosphorylation of ERK1/2 in PBECs (FIG. 6C) and HUVECs (FIG. 6D). The cells were preincubated with PD98059 ([…]) or DMSO vehicle control for 1 hour, followed by stimulation of PBECs and HUVECs with medium or ML-1 for 20 minutes or 10 minutes, respectively. The results shown are representative of three separate experiments.
For analysis of activation of MAP kinases, PBECs were treated with IL-17 (100 ng/ml) for various time periods, with or without the MEK 1/2 inhibitor PD98059 ([…]; Calbiochem, La Jolla, Calif.) (15), the p38 inhibitor SB202190 (0.5-10 μM; ref. 16), or a vehicle control, DMSO (Me2SO) for 1 hour. […] Following the treatment, the cells were washed with ice-cold PBS. […]
Immunoreactive proteins were detected using antibodies against various kinases and phosphorylated kinases. […] Western blotting detection reagents (Amersham) and Hyper ECL luminescence detection film (Amersham) were used. […]

B1: ML-1: new member of the IL-17 cytokine family, SEQ ID NO:2; His-tagged recombinant protein expressed in COS-7 cells and affinity purified (protein, listed as Homo sapiens)
chain: MKLDIGIINENQRVSMSRNIESRSTSPWNYTVTWDPNRYPSEVVQAQCRNLGCINAQGKEDISMNSVPIQQETLVVRRKHQGCSVSFQLEKVLVTVGCTCVTPVIHHVQ
modifications: His tag
Question: How did the “ICAM-1 surface expression, mean fluorescence intensity (MFI)” value (ICAM-1) turn out when B1 was run?
Answer: 31.42±4.39

Question: And the “activation of p38 kinase” value (p38)?
Answer: No activation
